According to the supplement of paper PMC9876800:

Tested on: peptide library, one residue held at a place counted from the S/T acceptor
Test: relative phosphorylation of the sub-library (ratio to the mean residue at this position); higher = residue favoured
Conditions: human
Summary of the method: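 In 384-well plates, purified recombinant kinases (human or orthologue constructs) were incubated for 90 min under kinase-specific conditions with 50 μM biotinylated degenerate peptide sub-libraries and 50 μM ATP spiked with γ-32P-ATP. Each sub-library fixed a single residue at one position around a central Ser/Thr. Relative sub-library phosphorylation, measured by phosphorimaging and densitometry of streptavidin membrane spots, is given as a ratio to the mean residue at that position.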

PHKG2, construct: aa6-293, sequence (P15735 6-293, looked up): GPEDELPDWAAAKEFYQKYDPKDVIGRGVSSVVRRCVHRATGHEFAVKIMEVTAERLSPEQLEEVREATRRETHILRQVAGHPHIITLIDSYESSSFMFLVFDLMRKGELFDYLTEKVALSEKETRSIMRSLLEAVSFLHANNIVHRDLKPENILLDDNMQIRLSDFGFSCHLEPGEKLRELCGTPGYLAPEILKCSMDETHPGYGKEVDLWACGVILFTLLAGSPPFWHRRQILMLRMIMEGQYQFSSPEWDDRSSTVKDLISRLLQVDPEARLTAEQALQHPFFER
OXSR1, construct: Full length, sequence (O95747 whole entry, looked up): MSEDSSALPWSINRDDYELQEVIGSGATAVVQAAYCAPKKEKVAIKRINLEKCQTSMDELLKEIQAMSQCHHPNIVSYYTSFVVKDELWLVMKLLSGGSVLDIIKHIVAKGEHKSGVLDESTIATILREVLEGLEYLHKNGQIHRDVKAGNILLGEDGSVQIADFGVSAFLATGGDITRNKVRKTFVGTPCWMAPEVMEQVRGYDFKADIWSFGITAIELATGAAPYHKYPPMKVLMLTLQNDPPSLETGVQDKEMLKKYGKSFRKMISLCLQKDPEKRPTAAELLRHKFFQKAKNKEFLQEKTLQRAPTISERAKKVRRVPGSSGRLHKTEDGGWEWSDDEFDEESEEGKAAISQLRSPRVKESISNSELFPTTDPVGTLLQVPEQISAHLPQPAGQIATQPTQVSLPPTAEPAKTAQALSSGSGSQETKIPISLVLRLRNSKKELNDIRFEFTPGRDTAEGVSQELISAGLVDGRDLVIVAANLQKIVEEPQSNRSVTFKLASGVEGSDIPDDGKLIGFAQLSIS
NUAK2, construct: Full length, sequence (Q9H093 whole entry, looked up): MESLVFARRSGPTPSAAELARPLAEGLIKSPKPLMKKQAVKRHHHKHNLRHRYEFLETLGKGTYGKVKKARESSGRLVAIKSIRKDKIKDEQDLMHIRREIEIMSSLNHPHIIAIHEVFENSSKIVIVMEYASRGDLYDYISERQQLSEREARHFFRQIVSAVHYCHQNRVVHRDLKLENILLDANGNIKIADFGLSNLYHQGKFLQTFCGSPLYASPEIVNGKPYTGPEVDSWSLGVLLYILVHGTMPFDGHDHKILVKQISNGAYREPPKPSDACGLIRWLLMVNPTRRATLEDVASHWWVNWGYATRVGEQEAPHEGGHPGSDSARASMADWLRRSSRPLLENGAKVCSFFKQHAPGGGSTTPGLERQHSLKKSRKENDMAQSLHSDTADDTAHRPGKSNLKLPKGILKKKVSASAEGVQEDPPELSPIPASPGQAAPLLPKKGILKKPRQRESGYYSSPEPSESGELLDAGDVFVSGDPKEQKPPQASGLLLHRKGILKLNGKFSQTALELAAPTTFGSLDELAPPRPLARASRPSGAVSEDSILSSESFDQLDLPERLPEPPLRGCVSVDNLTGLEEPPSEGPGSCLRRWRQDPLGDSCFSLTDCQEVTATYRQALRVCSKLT
PAK5, construct: aa425-end, sequence (Q9P286 425-719, looked up): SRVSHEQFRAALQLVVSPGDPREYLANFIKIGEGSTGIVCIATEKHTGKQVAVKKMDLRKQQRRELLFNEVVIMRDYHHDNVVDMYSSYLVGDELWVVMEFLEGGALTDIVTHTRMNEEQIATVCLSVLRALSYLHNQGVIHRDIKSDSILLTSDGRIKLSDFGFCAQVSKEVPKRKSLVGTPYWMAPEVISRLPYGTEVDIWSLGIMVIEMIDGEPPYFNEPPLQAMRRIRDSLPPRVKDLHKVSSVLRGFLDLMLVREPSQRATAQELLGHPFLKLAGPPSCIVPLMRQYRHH

NUAK2, construct: Full length (from UniProt Q9H093)
relative phosphorylation
Conditions | at +1 | at +2 | at +3 | at +4 | at -1 | at -2 | at -3 | at -4 | at -5
A fixed | 0.911 | 0.916 | 0.886 | 0.691 | 1.22 | 1.89 | 0.724 | 1.15 | 0.804
D fixed | 0.559 | 0.547 | 1.29 | 0.509 | 0.855 | 0.865 | 0.378 | 0.554 | 0.385
E fixed | 0.598 | 0.535 | 0.635 | 0.498 | 0.549 | 0.503 | 0.514 | 0.867 | 0.435
F fixed | 1.71 | 0.654 | 1.16 | 0.862 | 0.705 | 0.722 | 0.461 | 0.764 | 1.07
G fixed | 1.18 | 1.14 | 0.712 | 0.702 | 1.42 | 0.979 | 0.725 | 0.862 | 0.603
H fixed | 0.898 | 1.35 | 1.61 | 0.907 | 0.911 | 0.659 | 1.01 | 0.912 | 0.605
I fixed | 0.691 | 0.99 | 0.713 | 2.05 | 0.45 | 0.761 | 0.452 | 1 | 2.27
K fixed | 1.08 | 1.66 | 1.26 | 1.32 | 1.44 | 0.975 | 2.61 | 1.59 | 1.3
L fixed | 0.739 | 0.839 | 0.705 | 1.87 | 0.84 | 0.528 | 0.541 | 0.858 | 1.73
M fixed | 1.24 | 0.909 | 0.828 | 1.55 | 1.07 | 0.83 | 0.73 | 1.37 | 1.02
N fixed | 1 | 1.07 | 1.44 | 0.74 | 1.26 | 2.66 | 0.566 | 0.628 | 0.435
P fixed | 0.896 | 0.727 | 0.529 | 0.679 | 1.42 | 0.602 | 0.88 | 0.86 | 0.735
Q fixed | 1.16 | 0.745 | 0.766 | 0.624 | 1.09 | 1.23 | 0.739 | 0.954 | 0.613
R fixed | 1.51 | 2.48 | 1.69 | 1.1 | 1.65 | 1.23 | 5.28 | 1.8 | 1.66
V fixed | 0.763 | 0.927 | 0.614 | 1.07 | 0.581 | 1.26 | 0.443 | 1.13 | 1.74
W fixed | 0.868 | 0.717 | 1.07 | 0.931 | 0.557 | 0.598 | 0.471 | 0.837 | 0.687
Y fixed | 1.19 | 0.785 | 1.09 | 0.896 | 0.962 | 0.709 | 0.474 | 0.856 | 0.894
pThr fixed | 1.13 | 1.29 | 0.495 | 0.708 | 0.389 | 0.808 | 0.725 | 0.919 | 0.653
pTyr fixed | 0.814 | 0.59 | 0.71 | 0.605 | 1.03 | 0.477 | 0.531 | 0.602 | 0.76

OXSR1, construct: Full length (from UniProt O95747)
relative phosphorylation
Conditions | at +1 | at +2 | at +3 | at +4 | at -1 | at -2 | at -3 | at -4 | at -5
A fixed | 0.587 | 0.646 | 1.07 | 1 | 0.862 | 0.695 | 0.845 | 1.05 | 1.23
D fixed | 0.346 | 0.325 | 0.493 | 0.683 | 1.83 | 1.34 | 1.26 | 1.9 | 1.83
E fixed | 0.382 | 0.249 | 0.487 | 0.666 | 1.19 | 1.31 | 1.27 | 1.8 | 1.52
F fixed | 1.08 | 0.495 | 0.574 | 0.702 | 0.643 | 0.693 | 0.48 | 0.722 | 0.76
G fixed | 0.509 | 1.09 | 1.42 | 1.37 | 0.801 | 1.31 | 1.17 | 1.41 | 1.4
H fixed | 1.21 | 3.55 | 1.17 | 1.07 | 1.67 | 1.43 | 1.57 | 1 | 0.976
I fixed | 1.69 | 0.541 | 0.443 | 0.596 | 0.447 | 0.333 | 0.36 | 0.329 | 0.386
K fixed | 0.838 | 1.25 | 2.23 | 1.93 | 0.975 | 0.584 | 0.783 | 0.964 | 1.06
L fixed | 1.14 | 0.459 | 0.531 | 0.634 | 0.931 | 0.432 | 0.384 | 0.416 | 0.519
M fixed | 1.36 | 0.76 | 0.613 | 0.78 | 0.968 | 0.531 | 0.51 | 0.633 | 0.581
N fixed | 0.689 | 1.18 | 1.1 | 0.947 | 1.64 | 1.69 | 2.04 | 1.14 | 0.96
P fixed | 0.351 | 0.677 | 1.47 | 1.29 | 0.494 | 0.673 | 1.3 | 1.22 | 1.4
Q fixed | 1.06 | 1 | 0.907 | 1.06 | 0.987 | 1.61 | 1.18 | 1.09 | 0.757
R fixed | 1.04 | 2.08 | 2.47 | 1.7 | 1.33 | 0.677 | 0.846 | 0.994 | 1.12
V fixed | 1.53 | 0.678 | 0.556 | 0.63 | 0.446 | 0.378 | 0.552 | 0.535 | 0.549
W fixed | 1.99 | 0.782 | 0.72 | 1.09 | 0.706 | 0.84 | 0.663 | 0.864 | 0.852
Y fixed | 1.2 | 1.23 | 0.739 | 0.856 | 1.09 | 2.46 | 1.79 | 0.937 | 1.11
pThr fixed | 0.911 | 0.562 | 0.699 | 0.507 | 0.94 | 1.06 | 1.43 | 1.49 | 1.46
pTyr fixed | 0.769 | 0.428 | 0.728 | 0.82 | 2.18 | 1.52 | 1.41 | 1.53 | 1.82

PAK5, construct: aa425-end (from UniProt Q9P286)
relative phosphorylation
Conditions | at +1 | at +2 | at +3 | at +4 | at -1 | at -2 | at -3 | at -4 | at -5
A fixed | 0.523 | 3.81 | 0.935 | 0.868 | 0.794 | 0.298 | 0.638 | 1.06 | 1.07
D fixed | 0.142 | 0.456 | 0.657 | 0.741 | 0.332 | 0.0993 | 0.253 | 0.673 | 0.561
E fixed | 0.161 | 0.217 | 0.94 | 0.704 | 0.254 | 0.0919 | 0.269 | 0.731 | 0.544
F fixed | 1.37 | 0.928 | 1.42 | 0.877 | 1.06 | 0.519 | 0.574 | 0.881 | 0.948
G fixed | 0.353 | 0.908 | 1.17 | 1.34 | 0.645 | 0.224 | 0.814 | 1.22 | 1.14
H fixed | 0.93 | 0.94 | 1.08 | 0.987 | 1.36 | 1.1 | 1.02 | 1.16 | 1.18
I fixed | 1.82 | 0.958 | 0.944 | 0.834 | 0.538 | 0.325 | 0.439 | 0.591 | 0.78
K fixed | 0.715 | 0.343 | 0.634 | 0.97 | 1.72 | 0.815 | 3.3 | 1.53 | 1.74
L fixed | 1.48 | 0.79 | 1.19 | 0.826 | 1.22 | 0.27 | 0.432 | 0.804 | 0.794
M fixed | 1.83 | 0.681 | 1.07 | 0.876 | 1.28 | 0.347 | 0.557 | 0.932 | 0.835
N fixed | 0.402 | 0.924 | 0.702 | 1.01 | 0.942 | 0.26 | 0.744 | 0.959 | 0.986
P fixed | 0.18 | 0.846 | 1.08 | 1.74 | 0.278 | 0.576 | 0.567 | 0.867 | 0.899
Q fixed | 0.672 | 0.742 | 0.842 | 0.977 | 0.991 | 0.455 | 0.895 | 1 | 0.836
R fixed | 0.911 | 0.444 | 0.861 | 1.33 | 2.54 | 9.1 | 4.48 | 1.98 | 1.79
V fixed | 1.55 | 1.87 | 0.962 | 0.798 | 0.531 | 0.333 | 0.376 | 0.586 | 0.791
W fixed | 2.21 | 1.02 | 1.32 | 1.21 | 1.14 | 0.428 | 0.898 | 1.08 | 1.12
Y fixed | 1.74 | 1.12 | 1.21 | 0.917 | 1.38 | 1.76 | 0.745 | 0.935 | 0.987
pThr fixed | 0.367 | 0.442 | 0.647 | 0.925 | 0.214 | 0.201 | 0.373 | 0.693 | 0.735
pTyr fixed | 0.581 | 0.527 | 0.956 | 0.732 | 0.268 | 0.216 | 0.45 | 0.731 | 0.729

PHKG2, construct: aa6-293 (from UniProt P15735)
relative phosphorylation
Conditions | at +1 | at +2 | at +3 | at +4 | at -1 | at -2 | at -3 | at -4 | at -5
A fixed | 0.436 | 0.632 | 0.881 | 0.674 | 0.927 | 0.973 | 0.741 | 0.731 | 0.93
D fixed | 0.155 | 0.214 | 0.222 | 0.297 | 0.609 | 0.353 | 0.242 | 0.326 | 0.364
E fixed | 0.198 | 0.157 | 0.301 | 0.246 | 0.389 | 0.466 | 0.3 | 0.561 | 0.38
F fixed | 2.96 | 1.28 | 1.04 | 1.21 | 1.07 | 0.891 | 0.368 | 0.797 | 1.1
G fixed | 0.369 | 0.579 | 0.828 | 0.774 | 0.977 | 0.985 | 0.578 | 0.833 | 0.768
H fixed | 0.681 | 1.43 | 1.12 | 0.916 | 0.871 | 0.867 | 0.899 | 1.15 | 0.999
I fixed | 1.63 | 0.694 | 0.929 | 0.743 | 0.772 | 0.711 | 0.562 | 1.19 | 1.16
K fixed | 0.664 | 2.43 | 1.79 | 1.95 | 1.84 | 1.5 | 3.76 | 1.84 | 1.73
L fixed | 1.72 | 0.642 | 0.976 | 1.06 | 0.888 | 0.853 | 0.454 | 0.991 | 1.26
M fixed | 1.77 | 0.757 | 0.974 | 0.885 | 0.987 | 1.12 | 0.576 | 1.13 | 0.958
N fixed | 0.403 | 0.694 | 0.792 | 0.753 | 1.15 | 1.13 | 0.538 | 0.849 | 0.761
P fixed | 0.107 | 0.267 | 0.616 | 0.556 | 1.11 | 0.528 | 0.422 | 0.587 | 0.706
Q fixed | 0.593 | 0.601 | 0.851 | 1.02 | 0.917 | 1.72 | 0.77 | 0.878 | 0.776
R fixed | 0.997 | 3.32 | 2.61 | 2.71 | 1.84 | 2.48 | 5.1 | 1.98 | 1.85
V fixed | 0.896 | 0.574 | 0.856 | 0.719 | 0.9 | 0.778 | 0.477 | 0.922 | 1.15
W fixed | 2.03 | 1.56 | 1.2 | 1.48 | 0.751 | 0.861 | 0.556 | 0.996 | 0.926
Y fixed | 1.4 | 1.16 | 1.01 | 1.01 | 0.998 | 0.795 | 0.663 | 1.23 | 1.19
pThr fixed | 0.353 | 0.302 | 0.378 | 0.285 | 0.558 | 0.0668 | 0.449 | 0.505 | 0.678
pTyr fixed | 0.404 | 0.369 | 0.462 | 0.307 | 0.755 | 0.637 | 0.517 | 0.746 | 0.63
